# Laboratory results taken from the nanobody polyreactivity screen of Harvey et al. (2022).
# Test: yeast display, Sf9 membrane polyspecificity reagent, FACS + sequencing; frameworks hold sequencing errors
# Method in brief: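 A synthetic nanobody library was expressed on Saccharomyces cerevisiae BJ5465 by galactose induction for 36–48 hours. The library was stained for 1 hour at 4 °C with 10% biotinylated, detergent-solubilized Sf9 membrane reagent and enriched with streptavidin microbeads before FACS. Low and high (top ~1%) gates were set on anti-HA fluorescence for expression and streptavidin fluorescence for reagent binding, and each polyreactivity label reflects the gate of origin.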
row,Sequence,polyreactivity (PSR sort gate)
1,QVQLVESGGGLVQAGGSLRLICAASGSTFGWYAMGWYRQAPGQERELVAAISWGGGSTYYADSVKGRFTISRDNAKNTVYLQMNSLKPEVTAVYYCAKVPLTYSRSGYEYDYWGQGTQVTVSS,low polyreactivity
2,QVQLVESGGGLVQAGGSLRLICAASGSTFHTYAMGWYRQAPGKERELVATITWDGGRTYYADSVKGRFTISRDNAKNTVYLQMNSLKPEDPAVYYCAADYWSIEMDYWGQGTQVTVSS,low polyreactivity
3,QVQLVESGGGLVQAGGSLRLICAASGSTFKRYAMGWYRQAPGKERELVAAISLSSGSTYYADSVKGRFTISRDNAKNTVYLQMNSLKPEDTAVYYCNAAKTYPDVYEYDYWGQGTQVTVSS,high polyreactivity
4,QVQLVESGGGLVQAGGSLRLICAASGSTFKYNAMGWYRQAPGKERELVAAISSGGSTNYADSVKGRFTISRDNAKNTVYLQMHSLKPEDTAVYYCNAAYNYVTPWYFYWGQGTQVTVSS,high polyreactivity
5,QVQLVESGGGLVQAGGSLRLICAASGSTFQDNAMGWYRQAPGKERELVASISSVDSTNYADSVKGRFTISRDNAQNTVYLQMNSLKPEDTAVYYCNAAHPYRRVGSFTYKYDYWGQGTQVTVSS,low polyreactivity
6,QVQLVESGGGLVQAGGSLRLICAASGSTFRHYAMGWYRQAPGKERELVAAIRRSGGTTYYADSVKGRFTISRDNAKNTVYLHMNSLKPEDTAVYYCAARLTVRKLVRFDYWGQGTQVTVSS,low polyreactivity
7,QVQLVESGGGLVQAGGSLRLICAASGSTFSAYVMGWYRQAPGKERKLVAAITRSGVSTYYADSVKGRFTISRDNAKNTVYLQMNSLKPEDTAVYYCARRAKGAYWNEYNYWGQGTQVTVSS,high polyreactivity
8,QVQLVESGGGLVQAGGSLRLICAASGSTFTRYAMGWYRQAPGKERELVAAINSSGGRTYYADSVKGRFTISRDNAKNTVYLQMNSLKPEDTAVYYFAATRGRYREDEDYWGQGTQVTVSS,high polyreactivity
9,QVQLVESGGGLVQAGGSLRLICAASGSTFTRYAMGWYRQAPRKERELVAAISRGGSTNYADSVKGRFTISRDNAKNTVYLQMNSLKPEDTAVYYCAAARYRYYLGFGYDYWGQGTQVTVSS,high polyreactivity
10,QVQLVESGGGLVQAGGSLRLICAASGSTFYSNAMGWYRQAPGKERELVAAINYSGGGTYYADSVKGRFTISRDNAKNTVYLQMNSLKPEDTAVYYCAADGSYVHWEYGYWGQGTQVTVSS,low polyreactivity
11,QVQLVESGGGLVQAGGSLRLICAASGSTFYSYAMGWYRQAPGKERELVAVISWSGGSTYYADSVKGRFTISRDNAKNTVYLQMNSLKPEDTAVYYCAAESYYSDDWYYAYYYWGQGTQVTVSS,high polyreactivity
12,QVQLVESGGGLVQAGGSLRLICAASGSTIGGYVMGWYRQAPGKERELVAAISRSGASTYYADSVKGRFTISRDNAKNTVYLQMNSLKQEDTAVYYCAAYQARGMDYWGQGTQVTVSS,high polyreactivity
13,QVQLVESGGGLVQAGGSLRLICAASGSTIGSYVMGWYRTAPGKERELVAAITSGARTNYADSVKGRFTISRDNAKNTVYLQMNSLKPEDTAVYYCAKYYRPAYVYRIAGYYWGQGTQVTVSS,high polyreactivity
14,QVQLVESGGGLVQAGGSLRLICAASGSTILVYAMGCYRQAPWKEMELVAAITQIDGSTYYADSVKGRFTISRDNAKNTVYLQMNSLKPEDTAVFYCAARFFWTYEYDYWGQATQVTVSS,low polyreactivity
15,QVQLVESGGGLVQAGGSLRLICAASGSTLDKYAMGWDRPAPGKERELVAAISSSGGSTYYADSVKGRFTISRDNAKNTVYLQMNSLKPEDTAVYYCAARFFRGRYLDDYWGQGTQVTVSS,high polyreactivity
16,QVQLVESGGGLVQAGGSLRLICAASGSTLYRYAMGWYRPAPGKERELVAAISSAGSTHYADSVKGRFTISRDNAKNTVYLQMNSLKPEDTAVYYCAAKRYLKYGYWGQGTQVTVSS,high polyreactivity
17,QVQLVESGGGLVQAGGSLRLICAASGSTYHYAMGWYRQAPGKERELVASITWRGDTTYYADSVKGRFTISRDNAKYNVYLQMNSLKPEDTAVYYCAAYHFSFGWIRVDYWGQGTQVTVSS,high polyreactivity
18,QVQLVESGGGLVQAGGSLRLICAASGSYAMGWYRQAPGKERELVASIDGPGGSTYYADSVKGRFTISRDNAKNTVYLQMNSLKPEDTAVYYCEDWAPGLYDYWGQGTQVTVSS,low polyreactivity
19,QVQLVESGGGLVQAGGSLRLICAASGYIFYAYALGWYRQAPGKERELVAAITDNGVSTFYADSVKGRFTISRDNAKNTVYLHMKSLKPEETAVYYCATSSTHSRGDEYWGQGTQVTVSS,low polyreactivity
20,QVQLVESGGGLVQAGGSLRLICAASRFYTMGWYRQATVKERELVAAISWSGGDTYYADSVKGRFTISRDNAKNTVYLQMNSLKPEDTAVYYCAKKTIGSYVHEPFYYWGQGTQVTVSS,low polyreactivity
21,QVQLVESGGGLVQAGGSLRLICAASRSIFEINAMGWYSQAPGKERELVADNRRGDSTNYADSVNGRFTISRDNAKNTVYLQMNSLKPEVTAVYYCAARWRRSIYGVYPQRPYDYWGQGTQVTVSS,high polyreactivity
22,QVQLVESGGGLVQAGGSLRLICAASVTTFPYYAMGWYRQAPGKERELVAAITSSGGSTYYADSVKGRFTISRDNAKNTVYLQMNSLIPEDTAVYYCAKGYGPYRQMNYWGQGTQVTVSS,low polyreactivity

row,Sequence,polyreactivity (PSR sort gate)
1,QVQLVESGGGLVQAGGSLRLICAATGITFITYVMGWYSQAPGKERELVAAISLRGGRTSYADSVKGRFTISRDNAKNTVYLQMNSLKPEDTAVYYCAARGGAYQNAYEYDYWGPGTQVTVSS,high polyreactivity
2,QVQLVESGGGLVQAGGSLRLICAAYGGIFISYAMGWYRQAPWKERELVAAINYSGGSTNYADSVKGRFTLSRDNAKNTVYLQMNSLKPEDTAVYYCAARSTARYGYWGQGTQVTVSS,low polyreactivity
3,QVQLVESGGGLVQAGGSLRLICADSGFILPRNAMGWYRQAPGKERELVAAIRSSGGTTYYADSVKGRFTISRDIAKNTVYLQMNSLKPEDTAVYYCAAVTTSKFNYWGQGTQVTVSS,low polyreactivity
4,QVQLVESGGGLVQAGGSLRLICADYGITFRVNAMGWYRQAPGKERELVASISRSGGSTYYADSVKGRFTISRDNAKNTVYLQMNSLKPEDTAVYYCAAAQKVLFYGRWFDYWGQCTQVTVSS,low polyreactivity
5,QVQLVESGGGLVQAGGSLRLICAPSGRIFEGYAMGWYRPATRKERELVAAISRGGGSTYYADSVKGRFTISRDNAKNTVYLQMNSLIPEDTAVYYCAKVPLTYSRSGYEYDYWGQGTQVSVSS,low polyreactivity
6,QVQLVESGGGLVQAGGSLRLICAPSGRITLRYAIGWYRQAPRKERDFVAAITVSGGSTYYADSVKGRFTISRDNAKNTVYLMMNRLKPEDTAVYYCAVRQKTQYGSKHDYWGQGTQVTVSS,high polyreactivity
7,QVQLVESGGGLVQAGGSLRLICAPSGSIFTYYAMGRYRQAPGKEKELVAAISQSGGTTYYADSVKGRFTISRDNAKNTVYLQMNSLKPEDTAVSYCAARAPSSFDTQYYYWGQGTQVTVSS,low polyreactivity
8,QVQLVESGGGLVQAGGSLRLICAPSGSTNRYYAIGWSRQAPRKEMELVAPISWRGGSTYYADSVKGRFRISRDNANNTVYLEMNSLKPEDTAVYYCNAAYSYAVRDPIDYGYWGQGTQVTVSS,high polyreactivity
9,QVQLVESGGGLVQAGGSLRLICDASGIYYRNAMGWYRQAPGKEREMVAAISWSGGSTYYADSVKGRFTISRDNAKNTVYLQMNSLNPEDTAVYYCAAVGGRYPSNVLGYYYWGQGTQVTVSS,high polyreactivity
10,QVQLVESGGGLVQAGGSLRLICDASGRIFQFYAMGWYRQAPGKERELVAVITRRGGSTHYADSVKGRFTISRDNAKNTVYLQMNSLNPEDTAVYYCAAEWQTQGYEYWGQGTQVTVSS,high polyreactivity
11,QVQLVESGGGLVQAGGSLRLICDASGSIFRYYAMGWYRQAPGKERELVARISWRAGSTYADSVKGRFTISRDYAKNTVYLQINSQKPEDTAVYYCNADAHKDSWVGTSEYEYWGQGTQVTVSS,high polyreactivity
12,QVQLVESGGGLVQAGGSLRLLCAASGFTFGFNAMGWYRQAPGKERELVAAISRGGSTNYADSVKGLFTISRDNAKNTVYLQMNSLKPEDTAVYYCAADVITYVFRFYYWGQGTQVTVSS,low polyreactivity
13,QVQLVESGGGLVQAGGSLRLRCAASAGTFGIYSMGWYRQAPGKEREFVAAISGRGGTTYDADSVKGRFTISRDNAKYTVYLQMNSLKPVDTAVYYWATDSVNVGSNVGDKHDYWGQGTQVTVSS,low polyreactivity
14,QVQLVESGGGLVQAGGSLRLRCAASGFIFCSYAMGWYRQAPGKERELVAAINTSGDSTYYADSVKGRFTISRDNAKNTVYLQINSLKPEDTAVYYCAAESSPDGYFLSDYWGQGTQVTVSS,low polyreactivity
15,QVQLVESGGGLVQAGGSLRLRCAASGFIFGYYAMGWYRQAPGKERELVAAITTSGGSTYYADSVKARFTISRDNAKNTVYLQMNSLKPEDTAVYYCNKPGNYVWRRSWDFDYWGQGTQVTVSS,high polyreactivity
16,QVQLVESGGGLVQAGGSLRLRCAASGFTFAPNAMGWYRQAPGKERELVAAITWSGGSTYYADSVKGRFTISRDNAKNTVYVQMNSLKPEDTAVYYCNAVSRSTVTGQHDFWGQGTQVTVSS,high polyreactivity
17,QVQLVESGGGLVQAGGSLRLRCAASGGIFGFYAMGWYRQAPGKERELVAAISWGGGSTYYADSVKGRFTIARDNAKNTVFVQMNSLKPEDTAVYYCAADPALTKEYGYWGQGTQVTVSS,low polyreactivity
18,QVQLVESGGGLVQAGGSLRLRCAASGGIFTNNAKGWYRQAPGKERELVAAITGSGASTYYADSVKARFTISRDNAKNSVYLHLNSLKPEDTAVYYCNTDSPYGWEGEFDYWGLGTQVTVSS,high polyreactivity
19,QVQLVESGGGLVQAGGSLRLRCAASGGTFGVNAMGWYRQAPGKERELVAAISSSGGRTYYADSVKGRFTISRDNAKNTVYLQMNSLKPEDTAVYYCAARNYFWGQGTQVTVSS,low polyreactivity
20,QVQLVESGGGLVQAGGSLRLRCAASGIIFEYYAMGWYRQAPGKERELVAAITWNGGRTYYADSVKGRFTISRDNAKNTVYLQINSLKPEDTAVYYCAALTYYRDYWGLGTQVTVSS,high polyreactivity
21,QVQLVESGGGLVQAGGSLRLRCAASGIIFRGYAMGWYRPAPGKERELVAGITSGGDTNYADSVKGRFTISRDNAKNTVYVQMNSMNPEDTEGYYCATSDRRYRGRHYPFYKFDYWGQGPQVTVSS,low polyreactivity
